Where a SMILES comes first, the peptide text is derived from it. Where no end group is shown, it is not given here. [ ]: non-standard residue; d: D form.

Experiment [1] has as its target complex of His-TEV LRRC4B and recombinant FAM19A5 protein (Homo sapiens, UniProt Q7Z5A7). The experiment can be described thus: Competitive inhibition assay (IC50), plate coated with His-TEV LRRC4B. The format is binding. The following applies: FIG. 22C; d-form peptides; methods as for Table 15. The protocol: To further assess the inhibitory effect of the FB-21 mutants, the ability of additional FB-21 mutants described in Example 9 were tested for their ability to inhibit the interaction between FAM19A5 protein and LRRC4B protein. Briefly, plates were coated with 100 nM of His-TEV LRRC4B and then 1 ng/mL of rFAM19A5 was incubated at 37° C. in the presence of increasing concentrations of the FB-21 peptide fragments (0.3, 1, 3, 10, 30, 100, 300, 1000, 3000 and 10000 nM). The LRRC4B-bound FAM19A5 levels were measured using HRP-conjugated 1-65 SS01 antibody. As shown in FIG. 22B (see Table 15 for IC50), most (if not all) of the FB-21 mutants had improved ability in inhibiting the interaction between LRRC4B and recombinant FAM19A5 protein.
Next, to assess whether other properties of the polypeptides described herein can be improved (e.g., solubility, prevention of degradation from protease and peptidase, and in vivo administration), the following additional FB-21 peptide mutants were constructed and tested for their ability to inhibit the interaction between FAM19A5 protein and LRRC4B: (1) d-form FB-21 peptide (“dFB-21”), (2) d-form FB-21 peptide with juxta-membrane (JM) sequence (“dFB-JM-31”), (3) d-form FB-21 peptide with BBB penetrating sequence at each end of the sequence (“dFB-BBB-39”), and (4) d-form FB-21 mutant peptide with DY replacement and additional JM sequence (“dFB-DY-JM31”). […]

The target of experiment [2] is complex of human LRRC4B protein (hFc-fused) and recombinant FAM19A5 protein (Homo sapiens, UniProt Q7Z5A7). The experiment can be described thus: Competitive inhibition assay (IC50), plate coated with LRRC4B(453-576, TT/TT)-hFc. The format is binding. The following applies: hFc-fused hLRRC4B; from IC50 of Table 14. The protocol:
The in silico analysis provided in Example 9 highlighted that certain T12 and L13 double mutants might be important in improving the binding affinity of the polypeptides of the present disclosure to the FAM19A5 protein. Therefore, the ability of both the wild-type FB-21 peptide (which is the same as the FB-20 peptide described herein except that the FB-21 peptide additionally contains an alanine at the C-terminus) and several FB-21 mutants were tested for their inhibitor effect on hFc-fused hLRRC4B and FAM19A5 complex formation. Briefly, plate was coated with 100 nM of LRRC4B(453-576, TT/TT)-hFc and then 1 ng/mL of rFAM19A5 was incubated at 37° C. in the presence of increasing concentrations of the different FB-21 peptide fragments (0.03, 0.1, 0.3, 1, 3, 10, 30, 100, 300 and 1000 nM). The LRRC4B-bound FAM19A5 levels were measured using HRP-conjugated 1-65 antibody.

Experiment [3] addresses FAM19A5 protein (Homo sapiens, UniProt Q7Z5A7). In words: competitive inhibition ELISA; competitor: coated LRRC4B(453-576, TT/TT)-hFc. On the technique in general: In an ELISA, binding on a coated surface is turned into a signal by an enzyme label.
Experiment [4] has as its target T1, FAM19A5 (isoform 2) - full-length LRRC4B protein complex (Homo sapiens, UniProt Q7Z5A7).
T1 construct: expressed in transfected cells; host or cells: HEK293
The experiment can be described thus: Immunofluorescence: dissociation of FAM19A5 from full-length LRRC4B in HEK293 cells. The format is cell-based. The following applies: HEK293 cells expressing FAM19A5 isoform 2 and LRRC4B, treated 30 minutes. As to the method:
Since LRRC4B protein fragments containing the binding domain described in Example 2 (e.g., LRRC4B (453-576); i.e., construct #11 in Table 6) was able to bind to FAM19A5 protein with high affinity, it was next assessed whether such protein fragments could compete with naturally existing LRRC4B protein for binding to FAM19A5 protein, and thereby, dissociate the FAM19A5-LRRC4 protein family complex. Briefly, HEK293 cells expressing both FAM19A5 isoform 2 and LRRC4B protein were treated (i.e., cultured in vitro) for 30 minutes with either LRRC4B (453-576)-hFc or mutant LRRC4B (453-576)-hFc (includes alanine substitutions at positions 488 and 489 of SEQ ID NO: 2; SEQ ID NO: 16) protein fragments. Then, the cells were immunostained with anti-FAM19A5 (1-65) and anti-LRRC4B antibodies to determine the expression of FAM19A5 and full-length LRRC4B proteins, respectively. The hFc-fused LRRC4B protein fragments were determined using an anti-hIgG antibody. The nuclei were stained with Hoechst 33342.

Experiment [5] deals with binding of FAM19A5 protein to full-length ectodomain of the LRRC4B protein (amino acids 36-576)-hFc (Homo sapiens, UniProt Q7Z5A7). In words: Competitive inhibition assay, plate coated with full-length LRRC4B ectodomain. The following applies: 100 nM coated ectodomain; FAM19A5 5 ng/mL; increasing concentrations. As to the method: Next, to further assess the role that the binding domain of the LRRC4B protein has on the interaction between FAM19A5 protein and members of the LRRC4 protein family, a competitive inhibition assay was used to determine whether different LRRC4B deletion constructs from Example 2 could inhibit the binding of FAM19A5 to the full-length ectodomain of the LRRC4B protein (i.e., amino acids 36-576 of SEQ ID NO: 2; SEQ ID NO: 5). Briefly, 100 nM of the full-length ectodomain of the LRRC4B protein was used to coat a plate, and then recombinant FAM19A5 protein (5 ng/mL) was added to the plate in combination with the following LRRC4B deletion constructs (increasing concentrations): (1) LRRC4B (453-576) (i.e., construct #11 in Table 6); (2) LRRC4B (453-576) mutant (comprises alanine substitutions at positions 488 and 489 of SEQ ID NO: 2; SEQ ID NO: 16); (3) LRRC4B (484-576) (i.e., construct #12 in Table 6); (4) LRRC4B (482-576); (5) LRRC4B (482-497); and (6) LRRC4B (498-576). The plates were incubated at 37° C., and then, the amount of FAM19A5 bound to the coated LRRC4B ectodomain protein was measured using H1RP-conjugated anti-FAM19A5 (1-65) antibody. […]
Sequence of binding of FAM19A5 protein to full-length ectodomain of the LRRC4B protein (amino acids 36-576)-hFc (Q7Z5A7 44-132): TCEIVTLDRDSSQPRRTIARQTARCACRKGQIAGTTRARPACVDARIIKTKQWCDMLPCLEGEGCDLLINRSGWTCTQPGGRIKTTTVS

The target in experiment [6] is binding of FAM19A5 protein to full-length ectodomain of LRRC4 protein (Homo sapiens, UniProt Q7Z5A7). The experiment can be described thus: Competitive inhibition assay, plate coated with full-length LRRC4 ectodomain. The following applies: 100 nM/well coated full-length LRRC4 ectodomain; FAM19A5 5 ng/mL. The protocol:
(§1) As described in Example 3, there appeared to be much similarity in the binding domains of the different members of the LRRC4 family. […] Then, recombinant FAM19A5 protein (5 ng/mL) was added in combination with one of the following: (i) LRRC4B (484-576) protein fragment, (ii) LRRC4B (453-576, AA) protein fragment, and (iii) synthetic FB-20 peptide. The plates were incubated at 37° C., and then, the amount of FAM19A5 protein bound to the coated LRRC4, LRRC4B, or LRRC4C proteins was measured using anti-FAM19A5 (1-65) antibody.

Experiment [7] deals with binding of FAM19A5 protein to full-length ectodomain of LRRC4C protein (Homo sapiens, UniProt Q7Z5A7). In words: Competitive inhibition assay, plate coated with full-length LRRC4C ectodomain. The following applies: 100 nM/well coated full-length LRRC4C ectodomain; FAM19A5 5 ng/mL. The protocol: as §1
Sequence of binding of FAM19A5 protein to full-length ectodomain of LRRC4C protein (Q7Z5A7 44-132): as above

Sequence of complex of human LRRC4B protein (hFc-fused) and recombinant FAM19A5 protein (Q7Z5A7 44-132, one chain of several): as the sequence (Q7Z5A7 44-132) above
Sequence of complex of His-TEV LRRC4B and recombinant FAM19A5 protein (Q7Z5A7 44-132, one chain of several): as the sequence (Q7Z5A7 44-132) above
Sequence of binding of FAM19A5 protein to full-length ectodomain of LRRC4 protein (Q7Z5A7 44-132): as above
T1 sequence (Q7Z5A7 1-125 isoform Q7Z5A7-2, one chain of several): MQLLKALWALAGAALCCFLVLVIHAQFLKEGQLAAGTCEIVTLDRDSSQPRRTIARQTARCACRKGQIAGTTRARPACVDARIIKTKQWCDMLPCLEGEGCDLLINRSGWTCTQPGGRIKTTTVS

“nYTYFTTVTVEDYETQPGEEALDEVMKTTKa ([dN]YTYFTTVTVEDYETQPGEEALDEVMKTTK[dA]; also: terminal modifications) [dFB-DY-JM31]”: in experiment [1], the “more effective in inhibiting complex formation compared to the wild-type FB-21” value is 4 fold. `CC(C)[C@H](NC(=O)[C@@H](NC(=O)[C@@H](NC(=O)[C@@H](NC(=O)[C@@H](NC(=O)[C@H](Cc1ccccc1)NC(=O)[C@H](Cc1ccc(O)cc1)NC(=O)[C@@H](NC(=O)[C@H](Cc1ccc(O)cc1)NC(=O)CN)[C@@H](C)O)[C@@H](C)O)[C@@H](C)O)C(C)C)[C@@H](C)O)C(=O)N[C@@H](CCC(=O)O)C(=O)N[C@@H](Cc1c[nH]c2ccccc12)C(=O)N[C@@H](Cc1ccc(O)cc1)C(=O)N[C@@H](CCC(=O)O)C(=O)N[C@H](C(=O)N[C@@H](CCC(N)=O)C(=O)N1CCC[C@H]1C(=O)NCC(=O)N[C@@H](CCC(=O)O)C(=O)N[C@@H](CCC(=O)O)C(=O)N[C@@H](C)C(=O)O)[C@@H](C)O` [FB-21 (W12Y13)] (H-GYTYFTTVTVEWYETQPGEEA-OH; N-terminus and C-terminus assumed): in experiment [2], the “increase in ability to dissociate the LRRC4B-FAM19A5 complex compared with wild-type FB-21” value turned out to be 2.9 fold.

For the molecule GYTYFTTVTVEWYETQPGEEA [FB-21 (W12Y13)], in experiment [3], the fold increase in ability to dissociate the LRRC4B-FAM19A5 complex, against wild-type FB-21 amounted to 2.9 fold.

B1: LRRC4B mutant: LRRC4B (453-576) with alanine substitutions at positions 488 and 489 of SEQ ID NO: 2 (SEQ ID NO: 16) (protein)
chain: VSAVDPVAAGGTGSGGGGPGGSGGVGGGSGGYTYFAAVTVETLETQPGEEALQPRGTEKEPPGPTTDGVWGGGRPGDAAGPASSSTTAPAPRSSRPTEKAFTVPITDVTENALKDLDDVMKTTK
modifications: human Fc fusion in use
As for B1, the “dissociation of FAM19A5 from full-length LRRC4B protein” value in experiment [4] is reported as “FAM19A5 protein remained largely bound”. Moreover, the “inhibition of FAM19A5 binding to coated full-length LRRC4B ectodomain protein” value in experiment [5] was “much inferior in their ability to inhibit the interaction”. For the same molecule, the “inhibition of FAM19A5 binding to coated LRRC4 protein” value in experiment [6] is listed as “minimal effect”. In addition, the “inhibition of FAM19A5 binding to coated LRRC4C protein” value in experiment [7] is given as “minimal effect”.

The record behind these values is US20250333441A1, “POLYPEPTIDE INHIBITORS AND USES THEREOF” (Neuracle Science Co., Ltd., priority 2021, published 2025).
